Test results from patent KR20160022857A (dated 2016).
Where a chain is given by its changes, count along the chain named.

B1: M1-L-A1-3-1C3 (hz1E11-3), periplasmic extract (antibody, V domains shown)
VH: EVQLVESGGGLVQPGGSLRLSCAASGFTFSSYTMSWVRQAPGKGLEWVAYISNGGGSTYYPDTVKGRFTISRDNAKNSLYLQMNSLRAEDTAVYYCARHLGGTASFDYWGQGTLVTVSS
VL: DIQMTQSPSSLSASVGDRVTITCLASQTIGTWLAWYQQKPGKAPKLLIYVATSLADGVPSRFSGSGSGTDFTLTISSLQPEDFATYYCDQMYSTPWTFGQGTKVEIK
notes: Clone as expressed in bacteria, periplasmic extract; LCDR3 DQMYSTPWT
B2: M3-LH-A1-1-1H1 (antibody, V domains shown)
VH: B1 VH with H99N, L100Y
VL: B1 VL with D89Q, M91N, Y92F, S93I, T94A
B3: M3-LH-A3-3-2A5 (antibody, V domains shown)
VH: B1 VH with L100W
VL: B1 VL with D89Q, Y92F
B4: M1-LH-A3-3-1A6 (antibody, V domains shown)
VH: B1 VH with H99N, L100Y
VL: B1 VL with D89Q, M91L, Y92V, S93R
B5: M3-LH-A1-2-2F4 (antibody, V domains shown)
VH: B1 VH with H99N
VL: B1 VL with D89Q, M91L, Y92V, S93R, T94I
B6: M3-LH-A3-3-2F1 (antibody, V domains shown)
VH: B1 VH
VL: B1 VL with D89Q, M91N, Y92A, S93Y, T94N
notes: substitutions derived from the printed CDR3
B7: hz1E11-154 (IgG) (antibody, V domains shown)
VH: B1 VH
VL: B1 VL with D89Q, M91T, Y92A, S93F, T94S
notes: heavy variable region same as hz1E11
B8: hz1E11-133 (IgG) (antibody, V domains shown)
VH: B1 VH
VL: B1 VL with D89Q, M91N, Y92A, S93Y, T94A
notes: as for B7
B9: M3-L-A1-3-1A12 (hz1E11-133), periplasmic extract (antibody, V domains shown)
VH: B1 VH
VL: B1 VL with D89Q, M91N, Y92A, S93Y, T94A
notes: Clone as expressed in bacteria (IPTG), periplasmic extract; LCDR3 QQNAYAPWT
B10: M3-L-A1-3-2C2 (antibody, V domains shown)
VH: B1 VH
VL: B1 VL with D89Q, M91L, Y92G, S93F, T94I
notes: hz1E11 variant, periplasmic extract; substitutions derived from the printed CDR3 against hz1E11
B11: M3-L-A3-4-2E8 (antibody, V domains shown)
VH: B1 VH
VL: B1 VL with D89Q, M91I, Y92A, S93Y, T94V
notes: as for B10
B12: M3-L-A1-3-1F11 (hz1E11-154), periplasmic extract (antibody, V domains shown)
VH: B1 VH
VL: B1 VL with D89Q, M91T, Y92A, S93F, T94S
notes: Clone as expressed in bacteria, periplasmic extract; LCDR3 QQTAFSPWT

How the values were obtained:
HER2-ECD-His 단백질 [1] = target: T1, HER2-ECD-His 단백질 (human, UniProt P04626 23-652); experiment: SPR (Biacore 3000); HER2-ECD-His amine-coupled on CM5; periplasmic extract as analyte
T1 construct: extracellular domain; Origin and limits of the construct are not described; not shown: His tag

HER2-ECD-His 단백질 [2] = target: T1, HER2-ECD-His 단백질; experiment: SPR; IgG captured on goat anti-human IgG; HER2-ECD-His as analyte

Binder	koff 감소 정도 (Fold) vs hz1E11 (HER2-ECD-His 단백질 [1])	fold decrease of koff (kd) vs hz1E11 (HER2-ECD-His 단백질 [2])	fold improvement of affinity (KD) vs hz1E11 (HER2-ECD-His 단백질 [2])
B1	7.4 fold		
B2	0.7 fold		
B3	3.6 fold		
B4	5.8 fold		
B5	3.2 fold		
B6	4.4 fold		
B7		8.4 fold	20 fold
B8		8.4 fold	15 fold
B9	30.4 fold		
B10	2 fold		
B11	5.9 fold		
B12	9.7 fold		
